First the molecules themselves.
T1: E. coli proline tRNA synthetase (E. coli, UniProt P16659 1-572)
T1 construct: also called ProRS; E. coli ProRS
T1 sequence: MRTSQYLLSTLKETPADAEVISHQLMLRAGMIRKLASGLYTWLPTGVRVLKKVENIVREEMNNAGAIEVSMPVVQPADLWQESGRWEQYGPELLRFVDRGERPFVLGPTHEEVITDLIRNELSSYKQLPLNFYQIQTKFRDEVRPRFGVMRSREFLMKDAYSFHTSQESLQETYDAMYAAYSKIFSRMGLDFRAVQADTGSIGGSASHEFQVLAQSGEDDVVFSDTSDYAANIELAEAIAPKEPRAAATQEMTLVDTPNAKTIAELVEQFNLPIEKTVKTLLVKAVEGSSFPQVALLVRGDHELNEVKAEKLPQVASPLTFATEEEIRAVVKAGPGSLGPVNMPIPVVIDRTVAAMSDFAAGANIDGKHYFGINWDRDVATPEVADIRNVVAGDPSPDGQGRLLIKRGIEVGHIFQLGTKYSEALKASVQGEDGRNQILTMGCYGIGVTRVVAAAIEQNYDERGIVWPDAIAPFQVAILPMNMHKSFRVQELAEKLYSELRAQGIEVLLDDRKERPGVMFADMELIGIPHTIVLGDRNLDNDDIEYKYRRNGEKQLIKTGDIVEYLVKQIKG

T2: carboxypeptidase B from pig pancreas (pig, UniProt P09955 111-416)
T2 sequence (looked up): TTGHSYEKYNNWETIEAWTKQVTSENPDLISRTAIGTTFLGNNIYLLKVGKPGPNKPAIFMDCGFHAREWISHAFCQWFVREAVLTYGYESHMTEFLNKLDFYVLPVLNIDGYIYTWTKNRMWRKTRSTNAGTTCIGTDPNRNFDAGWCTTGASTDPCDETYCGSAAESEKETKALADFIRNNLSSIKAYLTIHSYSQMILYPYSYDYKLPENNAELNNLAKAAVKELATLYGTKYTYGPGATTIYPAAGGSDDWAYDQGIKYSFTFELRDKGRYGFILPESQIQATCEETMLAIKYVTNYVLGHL

T3: Yeast alcohol dehydrogenase (yeast, UniProt P00330 2-348)
T3 sequence (looked up): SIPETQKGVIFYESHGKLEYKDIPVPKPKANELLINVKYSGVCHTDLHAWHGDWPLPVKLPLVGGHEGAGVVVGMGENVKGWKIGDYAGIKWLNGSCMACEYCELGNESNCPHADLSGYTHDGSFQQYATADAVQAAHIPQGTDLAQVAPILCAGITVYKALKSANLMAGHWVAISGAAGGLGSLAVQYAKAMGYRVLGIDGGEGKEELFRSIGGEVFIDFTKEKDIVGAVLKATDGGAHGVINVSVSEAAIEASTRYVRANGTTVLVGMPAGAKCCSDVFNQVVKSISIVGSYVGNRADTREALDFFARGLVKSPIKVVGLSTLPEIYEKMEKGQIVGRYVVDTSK

T4: biotinylated ProRS (E. coli, UniProt P16659 1-572, biotinylated with Sulfo NHS-LC-LC biotin, sites not stated)
T4 construct: also called biotinylated E. coli ProRS
T4 sequence: T1 sequence

T5: Agrobacterium faecalis beta-glucosidase (Agrobacterium faecalis, UniProt P12614 1-459, biotinylated with Sulfo NHS-LC-LC biotin, sites not stated)
T5 construct: captured on streptavidin beads or plates; also called β-glucosidase
T5 sequence: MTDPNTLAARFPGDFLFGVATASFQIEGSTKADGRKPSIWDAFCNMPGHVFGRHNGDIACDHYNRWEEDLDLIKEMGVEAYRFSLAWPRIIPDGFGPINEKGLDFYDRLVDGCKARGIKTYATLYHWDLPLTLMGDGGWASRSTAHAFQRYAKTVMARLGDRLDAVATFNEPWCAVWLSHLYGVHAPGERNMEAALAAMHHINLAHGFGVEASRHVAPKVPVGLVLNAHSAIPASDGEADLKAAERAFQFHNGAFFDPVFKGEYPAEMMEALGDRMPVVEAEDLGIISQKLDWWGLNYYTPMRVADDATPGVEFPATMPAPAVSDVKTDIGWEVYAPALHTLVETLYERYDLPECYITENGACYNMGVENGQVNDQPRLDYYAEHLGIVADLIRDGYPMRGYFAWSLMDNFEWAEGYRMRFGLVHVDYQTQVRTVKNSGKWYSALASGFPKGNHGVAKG

B1: biotinylated UL44 surrogate ligand peptide (peptide)
peptide: Biotin-SGSGEHVCSWGWGRC
modifications: not fully specified (bridges); cysteine pairing not given here
notes: synthetic; pre-complexed with streptavidin alkaline phosphatase (SA-AP) in the ELSA; also called UL44 BioKey
B2: ProRS-binding phage peptide SRVCAIWPDLDGCSR (X10C library) (peptide)
peptide: SRVCAIWPDLDGCSR
notes: on M13 phage; SR linkers included as printed; also called most often isolated phage
B3: non-biotinylated ProRS peptide (peptide)
peptide: VCAIWPDLDGC
notes: also called non-biotinylated ProRS surrogate ligand

Where no end group is shown, it is not given here. The star is where a group is joined. Biotin = O=C1N[C@H]2[C@H](CS[C@H]2CCCCC(=O)*)N1

T6 sequence (P08515 whole entry): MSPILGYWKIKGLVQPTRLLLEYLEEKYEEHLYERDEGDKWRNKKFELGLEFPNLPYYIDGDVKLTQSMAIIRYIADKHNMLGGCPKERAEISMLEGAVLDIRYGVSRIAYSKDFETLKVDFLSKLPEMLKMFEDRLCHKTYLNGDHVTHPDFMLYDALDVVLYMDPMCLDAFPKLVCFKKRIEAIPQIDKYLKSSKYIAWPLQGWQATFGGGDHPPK

One test has as its target T1, E. coli proline tRNA synthetase. The test can be described thus: ELSA, immobilized ProRS.
Turning to B1, the binding result is given as “no binding”.

Another test deals with T2, carboxypeptidase B from pig pancreas. The test can be described thus: cross reactivity phage ELISA. In general terms: In an ELISA, binding on a coated surface is turned into a signal by an enzyme label.
Turning to SSFRELKPGWWSYSR (on M13 phage) [phage-displayed peptide SSFRELKPGWWSYSR (P library)], the “fold ELISA signal on the specific target vs any other targets tested” value (“fold ELISA signal on the specific target” below) is at least 10 fold.

On to SRLLEVSPGWWQMSR (on M13 phage) [phage-displayed peptide SRLLEVSPGWWQMSR (P library)], for which the “fold ELISA signal on the specific target” value was at least 10 fold.

Turning to SSWGDYFNWRDGLSR (on M13 phage) [phage-displayed peptide SSWGDYFNWRDGLSR (N library)], the “fold ELISA signal on the specific target” value was at least 10 fold.

The next test has as its target T3, Yeast alcohol dehydrogenase. In words: cross reactivity phage ELISA.
For SSSFKPWPIYLGSSR (on M13 phage; group 2) [phage-displayed peptide SSSFKPWPIYLGSSR (P library)], the “fold ELISA signal on the specific target” value is at least 10 fold.

On to SVSVGMKPSPRP (on M13 phage) [phage-displayed peptide SVSVGMKPSPRP (PHD12 library)], for which the “fold ELISA signal on the specific target” value was at least 10 fold.

As for SSLLNESRLQWSTSR (on M13 phage) [phage-displayed peptide SSLLNESRLQWSTSR (R library)], the “fold ELISA signal on the specific target” value was at least 10 fold.

Take SSNYWWQSPVLSRHSR (on M13 phage) [phage-displayed peptide SSNYWWQSPVLSRHSR (CWL library)]: the “fold ELISA signal on the specific target” value was at least 10 fold.

Regarding SSWQGNVLLGNWISR (on M13 phage) [phage-displayed peptide SSWQGNVLLGNWISR (L library)], the “fold ELISA signal on the specific target” value was at least 10 fold.

With SRQVEVFKPWPVYSR (on M13 phage; group 2) [phage-displayed peptide SRQVEVFKPWPVYSR (K library)], the “fold ELISA signal on the specific target” value is at least 10 fold.

In the next test the target is T4, biotinylated ProRS. In words: phage ELISA, biotinylated target.
In the case of SREWHFWRDYNPTSR (on M13 phage) [phage-displayed peptide SREWHFWRDYNPTSR (R library)], the binding result is recorded as “binds”.

As for SSERGSGDRGEKGSR (on M13 phage) [phage-displayed peptide SSERGSGDRGEKGSR (D library)], the binding result is listed as “binds”.

As for SRDWGFWRLPESMASR (on M13 phage) [phage-displayed peptide SRDWGFWRLPESMASR (CWL library)], the binding result was “binds”.

As for SRDWGFWDWGVDRSR (on M13 phage) [phage-displayed peptide SRDWGFWDWGVDRSR (D library)], the binding result is “binds”.

For another test, the target named is T1, E. coli proline tRNA synthetase. The test can be described thus: ELSA, immobilized targets (legend of FIG. 17).
For the molecule LYSWPDEQYERP (also: biotinylated, position not given here, also called TyrRS1B; TyrRS BioKey) [biotinylated peptide TyrRS1], the binding result is “no binding”.

The next test addresses T5, Agrobacterium faecalis beta-glucosidase. In words: phage ELISA, biotinylated target on streptavidin plate.
As for SSASYAPWPIYFASR (on M13 phage; group 2) [phage-displayed peptide SSASYAPWPIYFASR (W library)], the binding result was “binds”.

For SSSVPFAPWPVYASR (on M13 phage; group 2) [phage-displayed peptide SSSVPFAPWPVYASR (P library)], the binding result is listed as “binds”.

As to SSTSLPFNRWPIYSR (on M13 phage; group 2) [phage-displayed peptide SSTSLPFNRWPIYSR (N library)], the binding result is listed as “binds”.

For SSEPFSVWPIYKHSR (on M13 phage; group 2) [phage-displayed peptide SSEPFSVWPIYKHSR (W library)], the binding result is “binds”.

Turning to SSQTDWRKIFQSLSR (on M13 phage; group 1) [phage-displayed peptide SSQTDWRKIFQSLSR (K library)], the binding result was “binds”.

Turning to SSGAFKPWPVYSFSR (on M13 phage; group 2) [phage-displayed peptide SSGAFKPWPVYSFSR (W library)], the binding result was “binds”.

With SSATDWGRVYSILSR (on M13 phage; group 1) [phage-displayed peptide SSATDWGRVYSILSR (R library)], the binding result is given as “binds”.

With SSSTDWLNVWRQLSR (on M13 phage; group 1) [phage-displayed peptide SSSTDWLNVWRQLSR (N library)], the binding result is on record as “binds”.

Another test deals with T1, E. coli proline tRNA synthetase. The test can be described thus: phage ELISA on immobilized ProRS and a variety of proteins.
Turning to SRWCDIWPDTGSCSR (on M13 phage) [ProRS-binding phage peptide SRWCDIWPDTGSCSR (P library)], the binding result is reported as “binds”.

Regarding SRWCELWPEGSGCSR (on M13 phage) [ProRS-binding phage peptide SRWCELWPEGSGCSR (P library)], the binding result was “binds”.

For the molecule SRLCDIMPQTVGCSR (on M13 phage) [ProRS-binding phage peptide SRLCDIMPQTVGCSR (P library)], the binding result was “binds”.

For the molecule SRWCELWSQDIGCSR (on M13 phage) [ProRS-binding phage peptide SRWCELWSQDIGCSR (X10C library)], the binding result is listed as “binds”.

Turning to SRWCEVWPDKRWCSR (on M13 phage) [ProRS-binding phage peptide SRWCEVWPDKRWCSR (P library)], the binding result is recorded as “binds”.

Turning to SRLCEVWPQTAGCSR (on M13 phage) [ProRS-binding phage peptide SRLCEVWPQTAGCSR (X10C library)], the binding result is “binds”.

For the molecule SRWCSLRPQDEGCSR (on M13 phage) [ProRS-binding phage peptide SRWCSLRPQDEGCSR (X10C library)], the binding result is “binds”.

As for B2, the binding result is on record as “binds”.

The next test addresses T6, GST (UniProt P08515 1-218 = GST).
T6 construct: also called glutathione-S-transferase
The test can be described thus: ELSA: biotinylated peptide pre-complexed with SA-AP, immobilized target.
Protocol: (§1) Target protein was immobilized in microtiter wells by incubating 0.5-2.0 μg per well in 100 μl of 0.1 M NaHCO₃ overnight at 4° C. […] During the 1 hour blocking period, the SA-AP:surrogate ligand conjugate was prepared by mixing 2 μg SA-AP and 50 pmol biotinylated surrogate ligand for each well of target protein. (This corresponds to a 1:1 ratio of biotinylated peptide to biotin binding sites.) The mixture was incubated at room temperature for 15-20 minutes and then diluted with Tris-buffered saline-Tween-20 (TBST) 10 mM Tris-HCl, pH 8.0, 150 mM NaCl, 0.05% Tween-20 such that there was 100 μl of conjugate per well.
(§2) After blocking, the wells were washed once with 200 μl TBST. The surrogate ligand:SA-AP conjugate was then added (100 μl/well) and incubated at room temperature for 2 hours. […] The assay was developed by adding 100 μl of pNPP and incubating at room temperature for 5-10 minutes. The absorbance was read at 405 nm.
As for B1, the binding result was “no binding”.

Another test deals with streptavidin (UniProt P22629 37-163, limits assumed). The test is described as above.
streptavidin, sequence (P22629 37-163 limits assumed): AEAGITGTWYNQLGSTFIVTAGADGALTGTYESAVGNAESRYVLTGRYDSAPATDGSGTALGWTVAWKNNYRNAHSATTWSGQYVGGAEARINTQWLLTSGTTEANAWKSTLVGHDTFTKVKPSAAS
Protocol: as §1, §2
Take B1: the binding result is recorded as “no binding”.

The next test has as its target T1, E. coli proline tRNA synthetase. The test can be described thus: tRNA charging assay (enzyme inhibition), competitive in respect to proline.
In general, Ki refers to the dissociation constant of the complex between target and ligand, obtained from inhibition or displacement. High values mean lower affinity, low ones higher affinity. For B3, the Ki is above 500 µM.

The values are drawn from patent publication US20050069951A1 (KARO BIO, published 2005).
